# Reference: publication PMC9482650, “Quantitative fragmentomics allow affinity mapping of interactomes” (Nature Communications, 2022)
# T1: ARHGEF11, O15085
# T1 sequence (O15085 42-136, limits assumed, looked up): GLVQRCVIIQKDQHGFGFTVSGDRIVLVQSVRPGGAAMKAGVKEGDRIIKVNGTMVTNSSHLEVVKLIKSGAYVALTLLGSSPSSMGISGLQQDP
# T2: GRIP1_5, Q9Y3R0
# T2 sequence (Q9Y3R0 568-668, limits assumed, looked up): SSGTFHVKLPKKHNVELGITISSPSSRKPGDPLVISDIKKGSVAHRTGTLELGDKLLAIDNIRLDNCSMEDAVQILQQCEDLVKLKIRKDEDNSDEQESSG
# T3: DLG3_3, Q92796
# T3 sequence (Q92796 374-475, limits assumed, looked up): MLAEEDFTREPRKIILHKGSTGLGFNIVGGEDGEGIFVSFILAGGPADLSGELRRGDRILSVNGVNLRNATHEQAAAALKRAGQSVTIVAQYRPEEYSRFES
# T4: MPDZ_5, O75970
# T4 sequence (O75970 695-796, limits assumed, looked up): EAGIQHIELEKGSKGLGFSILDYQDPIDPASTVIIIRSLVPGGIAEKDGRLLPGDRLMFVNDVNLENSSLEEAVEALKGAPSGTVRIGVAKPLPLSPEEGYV
# T5: APBA2_1, Q99767
# T5 sequence (Q99767 563-664, limits assumed, looked up): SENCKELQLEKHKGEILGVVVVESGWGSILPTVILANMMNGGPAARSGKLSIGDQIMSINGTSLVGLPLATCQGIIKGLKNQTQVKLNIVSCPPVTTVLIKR
# T6: GRIP1_2, Q9Y3R0
# T6 sequence (Q9Y3R0 145-248, limits assumed, looked up): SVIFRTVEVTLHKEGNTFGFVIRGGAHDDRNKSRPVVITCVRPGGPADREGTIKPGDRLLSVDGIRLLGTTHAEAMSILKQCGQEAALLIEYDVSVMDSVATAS
# T7: APBA1_1, Q02410
# T7 sequence (Q02410 651-752, limits assumed, looked up): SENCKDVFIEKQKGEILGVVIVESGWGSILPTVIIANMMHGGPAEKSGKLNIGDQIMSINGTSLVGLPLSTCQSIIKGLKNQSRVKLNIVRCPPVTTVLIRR
# T8: APBA2_2, Q99767
# T8 sequence (Q99767 654-744, limits assumed, looked up): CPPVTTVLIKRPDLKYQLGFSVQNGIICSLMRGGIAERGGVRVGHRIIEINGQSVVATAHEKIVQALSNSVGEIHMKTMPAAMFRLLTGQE
# T9: SNTB1, Q13884
# T9 sequence (Q13884 107-205, limits assumed, looked up): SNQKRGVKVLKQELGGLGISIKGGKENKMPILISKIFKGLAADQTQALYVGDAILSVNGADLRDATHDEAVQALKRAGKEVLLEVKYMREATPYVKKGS
# T10: MPP2, Q14168
# T10 sequence (Q14168 180-250, limits assumed, looked up): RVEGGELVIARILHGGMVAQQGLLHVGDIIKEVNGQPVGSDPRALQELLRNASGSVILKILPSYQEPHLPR
# T11: DFNB31_1, Q9P202
# T11 sequence (Q9P202 135-233, limits assumed, looked up): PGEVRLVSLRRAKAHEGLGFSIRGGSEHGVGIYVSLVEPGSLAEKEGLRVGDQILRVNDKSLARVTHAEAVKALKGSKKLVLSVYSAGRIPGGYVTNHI
# T12: NHERF3_3, Q5T2W1
# T12 sequence (Q5T2W1 238-333, limits assumed, looked up): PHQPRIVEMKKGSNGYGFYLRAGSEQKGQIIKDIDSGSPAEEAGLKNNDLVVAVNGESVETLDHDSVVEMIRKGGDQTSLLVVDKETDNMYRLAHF
# B1: GRIA3, P42263 (peptide)
# chain: NVYGTESVKI
# B2: PTH2R, P49190 (peptide)
# chain: GCQGETEDVL
# B3: GJA1, P17302 (peptide)
# chain: SRPRPDDLEI
# B4: ADGRE5, P48960 (peptide)
# chain: RALRASESGI
# B5: TTC24, A2A3L6 (peptide)
# chain: PMESGICTIV
# Biological target: TJP1_3, Q07157
# Sequence (Q07157 416-512): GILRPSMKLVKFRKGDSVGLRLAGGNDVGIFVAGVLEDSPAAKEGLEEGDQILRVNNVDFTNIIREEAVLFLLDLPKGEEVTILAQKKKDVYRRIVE
# Assay: holdup assay
# Parameters: key: below the threshold = too weak to quantify, mostly under pKd 3.1 to 4
# Settings: plain residues with an end cap or a label only (N-terminal biotin on a linker: ado-ado)
row,pKd,Binder
1,below the threshold,B1
2,below the threshold,B2
3,below the threshold,B3
4,below the threshold,B4
5,below the threshold,B5

# Biological target: DLG1_2, Q12959
# Sequence (Q12959 314-412): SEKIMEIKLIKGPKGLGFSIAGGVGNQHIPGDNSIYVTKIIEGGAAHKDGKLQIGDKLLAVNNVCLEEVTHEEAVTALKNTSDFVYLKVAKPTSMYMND
# Assay: holdup assay
# Parameters: key: below the threshold = too weak to quantify, mostly under pKd 3.1 to 4
# Settings: plain residues with an end cap or a label only (N-terminal biotin on a linker: ado-ado)
row,pKd,Binder
1,below the threshold,B1
2,below the threshold,B2
3,below the threshold,B3
4,below the threshold,B4
5,5.2,B5

# Biological target: DLG1_3, Q12959
# Sequence (Q12959 457-571): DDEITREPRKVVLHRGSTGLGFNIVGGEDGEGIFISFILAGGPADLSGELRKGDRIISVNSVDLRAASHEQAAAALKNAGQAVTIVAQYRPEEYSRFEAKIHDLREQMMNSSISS
# Assay: holdup assay
# Parameters: key: below the threshold = too weak to quantify, mostly under pKd 3.1 to 4
# Settings: plain residues with an end cap or a label only (N-terminal biotin on a linker: ado-ado)
row,pKd,Binder
1,below the threshold,B1
2,below the threshold,B2
3,below the threshold,B3
4,below the threshold,B4
5,3.53,B5

# Biological target: T1, ARHGEF11, O15085
# Assay: holdup assay
# Parameters: key: below the threshold = too weak to quantify, mostly under pKd 3.1 to 4
# Settings: plain residues with an end cap or a label only (N-terminal biotin on a linker: ado-ado)
row,pKd,Binder
1,below the threshold,B1
2,below the threshold,B2
3,below the threshold,B3
4,below the threshold,B4
5,4.85,B5

# Biological target: T2, GRIP1_5, Q9Y3R0
# Assay: holdup assay
# Parameters: key: below the threshold = too weak to quantify, mostly under pKd 3.1 to 4
# Settings: plain residues with an end cap or a label only (N-terminal biotin on a linker: ado-ado)
row,pKd,Binder
1,below the threshold,B1
2,below the threshold,B2
3,below the threshold,B3
4,below the threshold,B4
5,below the threshold,B5

# Biological target: GRID2IP_2, A4D2P6
# Sequence (A4D2P6 272-370): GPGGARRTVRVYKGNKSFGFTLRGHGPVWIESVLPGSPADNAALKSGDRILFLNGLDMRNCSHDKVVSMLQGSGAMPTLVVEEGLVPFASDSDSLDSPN
# Assay: holdup assay
# Parameters: key: below the threshold = too weak to quantify, mostly under pKd 3.1 to 4
# Settings: plain residues with an end cap or a label only (N-terminal biotin on a linker: ado-ado)
row,pKd,Binder
1,below the threshold,B1
2,below the threshold,B2
3,below the threshold,B3
4,below the threshold,B4
5,4.17,B5

# Biological target: LNX1_2, Q8TBB1
# Sequence (Q8TBB1 371-470): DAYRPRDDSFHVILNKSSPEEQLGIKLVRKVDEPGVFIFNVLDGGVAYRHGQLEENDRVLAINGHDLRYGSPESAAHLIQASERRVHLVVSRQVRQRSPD
# Assay: holdup assay
# Parameters: key: below the threshold = too weak to quantify, mostly under pKd 3.1 to 4
# Settings: plain residues with an end cap or a label only (N-terminal biotin on a linker: ado-ado)
row,pKd,Binder
1,below the threshold,B1
2,below the threshold,B2
3,below the threshold,B3
4,below the threshold,B4
5,4.37,B5

# Biological target: T3, DLG3_3, Q92796
# Assay: holdup assay
# Parameters: key: below the threshold = too weak to quantify, mostly under pKd 3.1 to 4
# Settings: plain residues with an end cap or a label only (N-terminal biotin on a linker: ado-ado)
row,pKd,Binder
1,below the threshold,B1
2,below the threshold,B2
3,below the threshold,B3
4,below the threshold,B4
5,below the threshold,B5

# Biological target: T4, MPDZ_5, O75970
# Assay: holdup assay
# Parameters: key: below the threshold = too weak to quantify, mostly under pKd 3.1 to 4
# Settings: plain residues with an end cap or a label only (N-terminal biotin on a linker: ado-ado)
row,pKd,Binder
1,below the threshold,B1
2,below the threshold,B2
3,below the threshold,B3
4,below the threshold,B4
5,3.56,B5

# Biological target: FRMPD4, Q14CM0
# Sequence (Q14CM0 67-160): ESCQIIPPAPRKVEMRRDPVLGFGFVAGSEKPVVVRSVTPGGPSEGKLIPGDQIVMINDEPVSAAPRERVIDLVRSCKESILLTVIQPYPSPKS
# Assay: holdup assay
# Parameters: key: below the threshold = too weak to quantify, mostly under pKd 3.1 to 4
# Settings: plain residues with an end cap or a label only (N-terminal biotin on a linker: ado-ado)
row,pKd,Binder
1,below the threshold,B1
2,4.21,B2
3,below the threshold,B3
4,below the threshold,B4
5,below the threshold,B5

# Biological target: T5, APBA2_1, Q99767
# Assay: holdup assay
# Parameters: key: below the threshold = too weak to quantify, mostly under pKd 3.1 to 4
# Settings: plain residues with an end cap or a label only (N-terminal biotin on a linker: ado-ado)
row,pKd,Binder
1,below the threshold,B1
2,below the threshold,B2
3,below the threshold,B3
4,below the threshold,B4
5,below the threshold,B5

# Biological target: T6, GRIP1_2, Q9Y3R0
# Assay: holdup assay
# Parameters: key: below the threshold = too weak to quantify, mostly under pKd 3.1 to 4
# Settings: plain residues with an end cap or a label only (N-terminal biotin on a linker: ado-ado)
row,pKd,Binder
1,below the threshold,B1
2,below the threshold,B2
3,below the threshold,B3
4,below the threshold,B4
5,below the threshold,B5

# Biological target: T7, APBA1_1, Q02410
# Assay: holdup assay
# Parameters: key: below the threshold = too weak to quantify, mostly under pKd 3.1 to 4
# Settings: plain residues with an end cap or a label only (N-terminal biotin on a linker: ado-ado)
row,pKd,Binder
1,below the threshold,B1
2,below the threshold,B2
3,below the threshold,B3
4,below the threshold,B4
5,below the threshold,B5

# Biological target: T8, APBA2_2, Q99767
# Assay: holdup assay
# Parameters: key: below the threshold = too weak to quantify, mostly under pKd 3.1 to 4
# Settings: plain residues with an end cap or a label only (N-terminal biotin on a linker: ado-ado)
row,pKd,Binder
1,below the threshold,B1
2,below the threshold,B2
3,below the threshold,B3
4,below the threshold,B4
5,below the threshold,B5

# Biological target: DLG4_1, P78352
# Sequence (P78352 62-152): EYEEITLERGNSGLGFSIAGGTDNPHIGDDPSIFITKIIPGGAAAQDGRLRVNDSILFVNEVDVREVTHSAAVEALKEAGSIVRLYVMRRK
# Assay: holdup assay
# Parameters: key: below the threshold = too weak to quantify, mostly under pKd 3.1 to 4
# Settings: plain residues with an end cap or a label only (N-terminal biotin on a linker: ado-ado)
row,pKd,Binder
1,below the threshold,B1
2,3.51,B2
3,below the threshold,B3
4,below the threshold,B4
5,4.71,B5

# Biological target: T9, SNTB1, Q13884
# Assay: holdup assay
# Parameters: key: below the threshold = too weak to quantify, mostly under pKd 3.1 to 4
# Settings: plain residues with an end cap or a label only (N-terminal biotin on a linker: ado-ado)
row,pKd,Binder
1,below the threshold,B1
2,below the threshold,B2
3,below the threshold,B3
4,below the threshold,B4
5,4.58,B5

# Biological target: LNX1_1, Q8TBB1
# Sequence (Q8TBB1 261-371): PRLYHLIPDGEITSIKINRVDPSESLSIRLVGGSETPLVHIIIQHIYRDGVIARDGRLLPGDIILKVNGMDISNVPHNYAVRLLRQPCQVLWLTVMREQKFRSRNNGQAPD
# Assay: holdup assay
# Parameters: key: below the threshold = too weak to quantify, mostly under pKd 3.1 to 4
# Settings: plain residues with an end cap or a label only (N-terminal biotin on a linker: ado-ado)
row,pKd,Binder
1,below the threshold,B1
2,below the threshold,B2
3,below the threshold,B3
4,below the threshold,B4
5,4.67,B5

# Biological target: T10, MPP2, Q14168
# Assay: holdup assay
# Parameters: key: below the threshold = too weak to quantify, mostly under pKd 3.1 to 4
# Settings: plain residues with an end cap or a label only (N-terminal biotin on a linker: ado-ado)
row,pKd,Binder
1,below the threshold,B1
2,below the threshold,B2
3,below the threshold,B3
4,below the threshold,B4
5,below the threshold,B5

# Biological target: GOPC, Q9HD26
# Assay: holdup assay
# Parameters: key: below the threshold = too weak to quantify, mostly under pKd 3.1 to 4
# Settings: plain residues with an end cap or a label only (N-terminal biotin on a linker: ado-ado)
row,pKd,Binder
1,below the threshold,B1
2,below the threshold,B2
3,below the threshold,B3
4,below the threshold,B4
5,4.4,B5

# Biological target: IL16_1, Q14005
# Sequence (Q14005 210-306): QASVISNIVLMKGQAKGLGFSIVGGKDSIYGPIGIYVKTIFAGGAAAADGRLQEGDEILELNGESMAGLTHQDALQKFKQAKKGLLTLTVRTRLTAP
# Assay: holdup assay
# Parameters: key: below the threshold = too weak to quantify, mostly under pKd 3.1 to 4
# Settings: plain residues with an end cap or a label only (N-terminal biotin on a linker: ado-ado)
row,pKd,Binder
1,below the threshold,B1
2,below the threshold,B2
3,below the threshold,B3
4,below the threshold,B4
5,3.88,B5

# Biological target: GORASP2, Q9H8Y8
# Assay: holdup assay
# Parameters: key: below the threshold = too weak to quantify, mostly under pKd 3.1 to 4
# Settings: plain residues with an end cap or a label only (N-terminal biotin on a linker: ado-ado)
row,pKd,Binder
1,3.51,B1
2,below the threshold,B2
3,below the threshold,B3
4,below the threshold,B4
5,4.64,B5

# Biological target: T11, DFNB31_1, Q9P202
# Assay: holdup assay
# Parameters: key: below the threshold = too weak to quantify, mostly under pKd 3.1 to 4
# Settings: plain residues with an end cap or a label only (N-terminal biotin on a linker: ado-ado)
row,pKd,Binder
1,below the threshold,B1
2,below the threshold,B2
3,below the threshold,B3
4,3.65,B4
5,3.65,B5

# Biological target: IL16_3, Q14005
# Sequence (Q14005 1107-1207): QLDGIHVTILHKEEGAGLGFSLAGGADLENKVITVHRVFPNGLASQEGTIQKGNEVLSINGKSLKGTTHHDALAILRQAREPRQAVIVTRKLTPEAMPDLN
# Assay: holdup assay
# Parameters: key: below the threshold = too weak to quantify, mostly under pKd 3.1 to 4
# Settings: plain residues with an end cap or a label only (N-terminal biotin on a linker: ado-ado)
row,pKd,Binder
1,below the threshold,B1
2,below the threshold,B2
3,below the threshold,B3
4,below the threshold,B4
5,below the threshold,B5

# Biological target: T12, NHERF3_3, Q5T2W1
# Assay: holdup assay
# Parameters: key: below the threshold = too weak to quantify, mostly under pKd 3.1 to 4
# Settings: plain residues with an end cap or a label only (N-terminal biotin on a linker: ado-ado)
row,pKd,Binder
1,below the threshold,B1
2,below the threshold,B2
3,below the threshold,B3
4,below the threshold,B4
5,below the threshold,B5

# Biological target: NHERF4_4, Q86UT5
# Sequence (Q86UT5 464-550): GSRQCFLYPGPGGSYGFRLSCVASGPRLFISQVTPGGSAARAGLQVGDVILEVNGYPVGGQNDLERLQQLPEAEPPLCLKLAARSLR
# Assay: holdup assay
# Parameters: key: below the threshold = too weak to quantify, mostly under pKd 3.1 to 4
# Settings: plain residues with an end cap or a label only (N-terminal biotin on a linker: ado-ado)
row,pKd,Binder
1,3.95,B1
2,below the threshold,B2
3,below the threshold,B3
4,below the threshold,B4
5,below the threshold,B5

# Biological target: CASK, O14936
# Sequence (O14936 487-570): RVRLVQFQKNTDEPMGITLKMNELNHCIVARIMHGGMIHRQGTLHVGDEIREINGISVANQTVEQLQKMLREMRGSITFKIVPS
# Assay: holdup assay
# Parameters: key: below the threshold = too weak to quantify, mostly under pKd 3.1 to 4
# Settings: plain residues with an end cap or a label only (N-terminal biotin on a linker: ado-ado)
row,pKd,Binder
1,below the threshold,B1
2,below the threshold,B2
3,below the threshold,B3
4,below the threshold,B4
5,below the threshold,B5
